Assay results from article PMC6424575 (Biochemistry, 2018).

What was measured:
[1] = target: DEBS3 (bimodular protein of the 6-deoxyerythronolide B synthase) (Saccharopolyspora erythraea, UniProt Q03133); assay: SEC-SAXS
DEBS module 3+TE = DEBS module 3+TE (Saccharopolyspora erythraea); assay: ELISA

Sequence of DEBS3 (bimodular protein of the 6-deoxyerythronolide B synthase) (Q03133 whole entry): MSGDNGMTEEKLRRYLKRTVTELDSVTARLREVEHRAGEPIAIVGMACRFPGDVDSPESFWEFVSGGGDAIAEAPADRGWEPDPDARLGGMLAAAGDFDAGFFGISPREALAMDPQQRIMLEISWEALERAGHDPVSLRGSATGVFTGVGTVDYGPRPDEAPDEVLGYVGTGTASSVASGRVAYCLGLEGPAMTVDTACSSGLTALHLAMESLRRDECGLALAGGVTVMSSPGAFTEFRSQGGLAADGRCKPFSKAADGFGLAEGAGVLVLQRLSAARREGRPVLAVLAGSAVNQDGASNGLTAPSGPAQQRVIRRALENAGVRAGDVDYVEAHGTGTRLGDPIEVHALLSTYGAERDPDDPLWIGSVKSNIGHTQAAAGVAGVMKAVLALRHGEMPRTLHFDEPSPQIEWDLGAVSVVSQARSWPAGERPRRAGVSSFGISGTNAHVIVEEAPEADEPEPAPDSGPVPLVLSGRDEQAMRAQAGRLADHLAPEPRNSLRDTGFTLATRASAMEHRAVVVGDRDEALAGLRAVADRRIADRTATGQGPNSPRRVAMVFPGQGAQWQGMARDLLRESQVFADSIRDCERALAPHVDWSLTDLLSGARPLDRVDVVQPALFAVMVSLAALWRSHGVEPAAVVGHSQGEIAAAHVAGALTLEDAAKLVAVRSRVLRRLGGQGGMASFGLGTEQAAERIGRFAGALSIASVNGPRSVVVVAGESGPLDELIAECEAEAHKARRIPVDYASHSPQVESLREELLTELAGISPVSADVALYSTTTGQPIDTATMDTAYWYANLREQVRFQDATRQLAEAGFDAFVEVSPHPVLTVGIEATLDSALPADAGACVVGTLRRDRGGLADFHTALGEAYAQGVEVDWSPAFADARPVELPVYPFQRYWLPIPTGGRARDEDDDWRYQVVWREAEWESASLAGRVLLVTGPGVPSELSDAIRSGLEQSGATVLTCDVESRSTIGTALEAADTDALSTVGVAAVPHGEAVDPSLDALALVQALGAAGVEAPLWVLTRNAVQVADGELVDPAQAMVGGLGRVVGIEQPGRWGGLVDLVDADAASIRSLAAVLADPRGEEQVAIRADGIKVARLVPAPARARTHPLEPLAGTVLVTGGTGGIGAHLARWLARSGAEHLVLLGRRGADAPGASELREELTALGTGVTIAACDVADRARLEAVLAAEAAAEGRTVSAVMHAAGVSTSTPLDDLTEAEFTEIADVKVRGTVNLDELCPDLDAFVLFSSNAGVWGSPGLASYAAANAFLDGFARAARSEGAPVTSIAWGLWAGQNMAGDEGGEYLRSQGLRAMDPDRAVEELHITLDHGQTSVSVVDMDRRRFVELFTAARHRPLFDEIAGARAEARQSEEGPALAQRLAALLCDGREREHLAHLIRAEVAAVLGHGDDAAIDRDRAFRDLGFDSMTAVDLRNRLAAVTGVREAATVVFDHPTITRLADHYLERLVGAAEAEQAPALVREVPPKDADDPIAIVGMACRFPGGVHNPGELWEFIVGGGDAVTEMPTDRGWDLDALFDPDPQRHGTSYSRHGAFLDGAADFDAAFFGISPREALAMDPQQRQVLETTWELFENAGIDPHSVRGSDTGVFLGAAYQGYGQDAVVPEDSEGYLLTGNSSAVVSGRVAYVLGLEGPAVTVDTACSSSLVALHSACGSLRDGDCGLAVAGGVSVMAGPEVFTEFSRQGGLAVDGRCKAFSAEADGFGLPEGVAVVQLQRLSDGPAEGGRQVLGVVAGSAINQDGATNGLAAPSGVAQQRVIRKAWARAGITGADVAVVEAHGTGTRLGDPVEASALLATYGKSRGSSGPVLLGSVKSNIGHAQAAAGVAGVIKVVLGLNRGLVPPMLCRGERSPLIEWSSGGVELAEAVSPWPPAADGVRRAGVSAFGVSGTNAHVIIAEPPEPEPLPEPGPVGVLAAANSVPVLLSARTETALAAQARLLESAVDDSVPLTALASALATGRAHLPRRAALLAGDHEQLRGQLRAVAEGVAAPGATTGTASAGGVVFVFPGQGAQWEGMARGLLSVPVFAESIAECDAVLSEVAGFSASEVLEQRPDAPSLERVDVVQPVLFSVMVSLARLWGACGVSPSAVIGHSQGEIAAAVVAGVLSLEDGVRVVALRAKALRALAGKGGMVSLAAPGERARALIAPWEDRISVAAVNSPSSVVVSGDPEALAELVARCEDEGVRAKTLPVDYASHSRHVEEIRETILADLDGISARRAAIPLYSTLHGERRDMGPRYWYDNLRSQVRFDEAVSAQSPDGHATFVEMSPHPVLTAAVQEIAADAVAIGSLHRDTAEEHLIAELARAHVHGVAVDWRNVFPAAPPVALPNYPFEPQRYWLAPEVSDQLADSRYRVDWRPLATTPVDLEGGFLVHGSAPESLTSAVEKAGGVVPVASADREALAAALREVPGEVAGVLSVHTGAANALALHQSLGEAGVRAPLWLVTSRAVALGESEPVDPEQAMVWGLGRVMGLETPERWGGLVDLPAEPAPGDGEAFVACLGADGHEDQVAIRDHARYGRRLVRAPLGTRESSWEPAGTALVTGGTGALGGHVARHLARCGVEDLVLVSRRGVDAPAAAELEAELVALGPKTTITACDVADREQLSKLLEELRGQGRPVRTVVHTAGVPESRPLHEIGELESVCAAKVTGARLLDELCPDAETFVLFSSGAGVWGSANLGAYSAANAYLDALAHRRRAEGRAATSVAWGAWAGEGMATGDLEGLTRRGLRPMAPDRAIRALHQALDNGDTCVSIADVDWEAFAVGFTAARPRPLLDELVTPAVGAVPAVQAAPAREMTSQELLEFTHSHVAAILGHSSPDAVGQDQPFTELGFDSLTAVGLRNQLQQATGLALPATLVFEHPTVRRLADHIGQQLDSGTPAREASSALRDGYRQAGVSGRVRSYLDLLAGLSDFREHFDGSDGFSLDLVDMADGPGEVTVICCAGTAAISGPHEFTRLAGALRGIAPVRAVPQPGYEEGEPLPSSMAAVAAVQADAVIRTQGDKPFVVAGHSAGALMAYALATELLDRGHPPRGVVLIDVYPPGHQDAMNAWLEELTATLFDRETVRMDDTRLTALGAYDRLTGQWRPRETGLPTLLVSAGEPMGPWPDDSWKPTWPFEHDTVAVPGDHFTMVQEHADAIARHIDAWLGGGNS

binding result [1]: binds
Kd (DEBS module 3+TE): 42 ± 12 nM
B1: Fab 3A6 (Fab, V domains shown)
VH: QVQLQQWGAGLLKPSETLSLTCAVYGGSFSGYYWSWIRQPPGKGLEWIGEINHSGSTNYNPSLKSRVTISVDTSKNQFSLKLSSVTAADTAVYYCARGLGYSGSYYAPNWGQGTLVTVSS
VL: not shown
